Nine molecules from US20050113284A1 (published 2005) can be followed below.

The labels stand for the following.
B1: c-Met prey protein A (amino acids 1003-1083 of SEQ ID NO: 4) fused to GAL4-AD (other, not shown: large carriers)
chain: DPLYEVMLKCWHPKAEMRPSFSELVSRISAIFSTFIGEHYVHVNATYVNVKCVAPYPSLLSSEDNADDEVDTRPASFWETS
notes: also called prey DNA A
B2: c-Met prey protein C (amino acids 1023-1083 of SEQ ID NO: 4) fused to GAL4-AD (other, not shown: large carriers)
chain: FSELVSRISAIFSTFIGEHYVHVNATYVNVKCVAPYPSLLSSEDNADDEVDTRPASFWETS
notes: also called prey DNA C
B3: c-Met prey protein G (amino acids 993-1043 of SEQ ID NO: 4) fused to GAL4-AD (other, not shown: large carriers)
chain: RRLLQPEYCPDPLYEVMLKCWHPKAEMRPSFSELVSRISAIFSTFIGEHYV
notes: also called prey DNA G
B4: prey clone No. 2-211: C-terminal 56 amino acids of human MERMUC fused to GAL4-AD (other, not shown: large carriers)
chain: VSAGENGGFLLLRLSVASPEDLTDPRVAERLMQQLHRELHAHAPHFQVSLLRVRRG
B5: prey clone No. 2-22: C-terminal 93 amino acids of human MERMUC fused to GAL4-AD (other, not shown: large carriers)
chain: SSRGTNSTLAKITTSAKTTMKPPTATPTTARTRPTTDVSAGENGGFLLLRLSVASPEDLTDPRVAERLMQQLHRELHAHAPHFQVSLLRVRRG
B6: prey clone No. 3-309: C-terminal 91 amino acids of the human c-Met β chain fused to GAL4-AD (other, not shown: large carriers)
chain: RRLLQPEYCPDPLYEVMLKCWHPKAEMRPSFSELVSRISAIFSTFIGEHYVHVNATYVNVKCVAPYPSLLSSEDNADDEVDTRPASFWETS
notes: also called human HGF receptor c-Met prey vector
B7: c-Met prey protein B (amino acids 1013-1083 of SEQ ID NO: 4) fused to GAL4-AD (other, not shown: large carriers)
chain: WHPKAEMRPSFSELVSRISAIFSTFIGEHYVHVNATYVNVKCVAPYPSLLSSEDNADDEVDTRPASFWETS
notes: also called prey DNA B
B8: prey clone No. 3-312: C-terminal 89 amino acids of the human c-Met β chain fused to GAL4-AD (other, not shown: large carriers)
chain: LLQPEYCPDPLYEVMLKCWHPKAEMRPSFSELVSRISAIFSTFIGEHYVHVNATYVNVKCVAPYPSLLSSEDNADDEVDTRPASFWETS
B9: MERMUC bait protein C260ΔC53 (amino acids 244-450 of SEQ ID NO: 10) fused to GAL4-DB (other, not shown: small tags and cut ends)
chain: VKASSTSDPPALPDSTEAKPHITEVTASAETLSTAGTTESAAPHATVGTPLPTNSATEREVTAPGATTLSGALVTVSRNPLEETSALSVETPSYVKVSGAAPVSIEAGSAVGKTTSFAGSSASSYSPSEAALKNFTPSETPTMDIATKGPFPTSRDPLPSVPPTTTNSSRGTNSTLAKITTSAKTTMKPPTATPTTARTRPTTDVSA
notes: also called C260A53; C260AC53

For assay [1], the target named is T1, human MERMUC bait-2 protein (C-terminal 123 amino acids of human MERMUC fused to GAL4-DB) (yeast; human).
T1 construct: also called MERMUC bait protein; fusion protein A
Nature of the assay: yeast two-hybrid (growth on SD/-Leu,-Trp,-His and SD/-Leu,-Trp,-Ade). Here is the method:
The binding activity between the c-Met prey proteins derived from the 7 DNA fragments and the MERMUC bait protein was analyzed by the yeast two-hybrid system described in Example 1. Specifically, the binding activity was evaluated based on the growth of yeast transformed with the vector on 2 kinds of yeast minimum media, i.e., (1) SD/-Leu, -Trp, -His media and (2) SD/-Leu, -Trp, -Ade media.

Assay [2] has as its target T1, human MERMUC bait-2 protein (C-terminal …). As to the kind of experiment: yeast two-hybrid screen of a human kidney cDNA library. On the procedure: Specifically, yeast two hybrid system (Proc. Natl. Acad. Sci. USA., 1991, Vol.88, p.9578-9582) was performed to screen a human kidney cDNA library using cDNA corresponding to the C-terminal region of the human MERMUC as the bait (that is, fishing bait).
On the other hand, each cDNA of the human kidney derived cDNA library (CLONTECH) that is used for the screening with the bait vector is inserted in pADK vector (tryptophan biosynthesis gene as a marker). Therefore, proteins produced through the expression of each of these cDNAs in yeast are produced as a fusion protein ([fusion protein B]) with the GAL4 transcriptional activation region (GAL4-AD).

For assay [3], the target named is MERMUC bait protein C260 (amino acids 244-503 of SEQ ID NO: 10) fused to GAL4-DB (yeast; human, UniProt P04386 1-147). Nature of the assay: yeast two-hybrid. On the procedure: (§1) Yeast AH109 strain was cotransfected with each of the bait vectors and the prey vector carrying human HGF receptor c-Met (DNA corresponding to the C-terminal 91 amino acids of the human c-Met; clone No. 3-309) identified in Example 1.
(§2) The binding ability of MERMUC bait protein derived from each of the bait vectors to the HGF receptor c-Met β chain was analyzed by the yeast two-hybrid system described above.

The target in assay [4] is MERMUC bait protein C53 (amino acids 451-503 of SEQ ID NO: 10) fused to GAL4-DB (yeast; human, UniProt P04386 1-147). As to the kind of experiment: yeast two-hybrid. On the procedure: as §1, §2
In assay [5] the target is B6. As to the kind of experiment: yeast two-hybrid. On the procedure: as §1, §2

Regarding B1, in assay [1], the binding result is reported as “binds”.

In the case of B2, the binding result in assay [1] is “no binding”.

On to B3, for which the binding result in assay [1] is “no binding”.

Turning to B4, the binding result in assay [2] is listed as “binds”.

On to B5, for which the binding result in assay [2] is “binds”.

With B6, the binding result in assay [3], in assay [4] and in assay [2] was “binds” each time.

On to B7, for which the binding result in assay [1] is on record as “binds”.

Turning to B8, the binding result in assay [2] is reported as “binds”.

As to B9, the binding result in assay [5] was “no binding”.
